Experimental data as given in US20160075784A1.

Columns and labels:
[1] = target: CS1-specific CAR (anti-CS1-scFv-CD28-CD3ζ; Pinco-CS1-CAR construct), expressed on transduced primary human T cells; assay: flow cytometry, CS1-CAR-transduced healthy donor T cells
[2] = target: CS1-specific CAR (anti-CS1-scFv-CD28-CD3ζ; Pinco-CS1-CAR construct), expressed on transduced primary human T cells; assay: flow cytometry, CS1-CAR-transduced T cells of patients with relapsed myeloma, double staining with anti-CD3

Chain of CS1-specific CAR (anti-CS1-scFv-CD28-CD3ζ; Pinco-CS1-CAR construct), expressed on transduced primary human T cells (chain, as listed by the source): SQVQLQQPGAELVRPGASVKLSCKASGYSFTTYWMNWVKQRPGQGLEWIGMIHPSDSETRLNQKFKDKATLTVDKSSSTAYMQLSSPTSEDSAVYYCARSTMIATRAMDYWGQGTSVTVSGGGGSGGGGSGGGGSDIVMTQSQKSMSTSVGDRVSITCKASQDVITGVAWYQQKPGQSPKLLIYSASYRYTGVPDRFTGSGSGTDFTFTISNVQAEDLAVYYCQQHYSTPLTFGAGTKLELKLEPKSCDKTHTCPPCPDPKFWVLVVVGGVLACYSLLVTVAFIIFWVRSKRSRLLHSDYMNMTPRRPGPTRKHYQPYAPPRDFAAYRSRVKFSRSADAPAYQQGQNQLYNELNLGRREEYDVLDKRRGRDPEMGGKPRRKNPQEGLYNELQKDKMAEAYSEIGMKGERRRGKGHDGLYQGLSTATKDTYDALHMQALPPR

biotin-labeled goat anti-mouse (Fab)2 polyclonal antibody (Jackson ImmunoResearch)
percent of cells stained [1]: 70.3%
percent of cells stained [2]: 60.7%
